Assay results: PMC9781295

What was measured:
[1] = target: GlyT1b L288C, N-terminal FLAG-tagged (human); assay: cross-linking; oxidative cross-linking on intact HEK293 cells with copper phenanthroline (CuP, 1-100 μM) for 15 min at 22 °C in HEPES buffered saline, quenched with 10 mM N-ethylmaleimide; lysates in non-reducing sample buffer, anti-FLAG immunoblot; also with ZnCl2, NMDGCl, Na+, glycine, bitopertin or LY2365109 present, or 100 mM DTT on the lysates
[2] = target: GlyT1b L288C, N-terminal FLAG-tagged (human)

“GlyT1b L288C, N-terminal FLAG-tagged (natural protein)” was tested, and the maximally increased % dimer fraction (CuP 1 to 100 μM) [1] was 55.9%, the stoichiometry N [1] was 2 and the [3H]glycine uptake after CuP treatment (1 to 100 μM), transport activity remaining at the highest CuP concentration, % of control without CuP [2] was 54 % of control.
